# Test results as given in patent publication US10004800.
# Experiments:
# [1] = target: C.CH505 (HIV-1); assay: SPR
# [2] = target: B.63521 (HIV-1); assay: SPR
Substance,Kd [1] [nM],Kd [2] [nM]
CH106,5.8,5.1
CH105,7.4,7
CH104,8.9,7.1
CH103,20,2.4
